Test results reported in the nanobody polyreactivity screen of Harvey et al. (2022).

Experiment: yeast display, Sf9 membrane polyspecificity reagent, FACS + sequencing; frameworks hold sequencing errors
Outline: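 Using colony PCR, genes from sorted yeast display clones were amplified, then sequenced on MiSeq at 2 × 250 and filtered by CDR length. The clones had been stained with 10% biotinylated, detergent-solubilized Sf9 membrane reagent for 1 hour at 4 °C and sorted by FACS into low and high (top ~1%) gates on anti-HA and streptavidin fluorescence. Polyreactivity labels come from the gate of origin.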
With “QVQLVESGGGLVQAGGSLRLSCAASGRTYSYYAMGSYRQAPGKERELVAAITTSGGSTYYADSVKGRFTISRDNAKNTVYLQMNSLKPEDTAVYYCNALSSGVYLYDYWGQGTQVTVSS” the “polyreactivity (PSR sort gate)” value was “high polyreactivity”. In the case of “QVQLVESGGGLVQAGGSLRLSCAASGRTYTRYALGWYRQAPGKERELVAAISGGGGSTYYADSVKGRFTISRDNAKNTVYLQMNSLKPEDTAVYYCNAAARGSSFDYWGQGTQVTVSS”, the “polyreactivity (PSR sort gate)” value is reported as “low polyreactivity”. With “QVQLVESGGGLVQAGGSLRLSCAASGRTYWYYVMGWYRQAPGTERELVAAISSSGGRTYYADSVKGRFTISRDNAKNTVYLQMNSLKPEDTAVYYCNVDAWYPYQGFLVGYYYWGQGTQVTVSS” the “polyreactivity (PSR sort gate)” value was “low polyreactivity”. For “QVQLVESGGGLVQAGGSLRLSCAASGRVFSTNAMGWYRQAPGKERELVAGINSGGSTNYADSVKGRFTISRDNAKNTVSLQMNSLKPEDTAVYYCNATLRVESWYVHYGVDYDYWGQGTQVTVSS”, the “polyreactivity (PSR sort gate)” value was “low polyreactivity”. With “QVQLVESGGGLVQAGGSLRLSCAASGSFIVQNSMGWYRQAPAKERELVAANTRGGSTYYADSVKGRFTISRDNAKNTVYLQMNSLKPEDTAVYYCAAYWYYYLMDYWGQGTQVTVSS” the “polyreactivity (PSR sort gate)” value was “low polyreactivity”. In the case of “QVQLVESGGGLVQAGGSLRLSCAASGSIFAAYTMGWYRQAPGKERELVAAISVSTVSTYYADSVKGRFTISRDNAKNTVYLLMNSLKPEDTAVYYCNAVATDSYPEKDEHDSWGQGTQVTVSS”, the “polyreactivity (PSR sort gate)” value is reported as “low polyreactivity”. With “QVQLVESGGGLVQAGGSLRLSCAASGSIFACYAMGRYRQAPGKERELVATITWSGGSTYYADSVKGRFTISRDNAKNTVYLQMNSLKPEDTAVYYCAAEVVGIWYDLWYQGDYWGQGTQVTVSS” the “polyreactivity (PSR sort gate)” value was “low polyreactivity”. For “QVQLVESGGGLVQAGGSLRLSCAASGSIFAGNAMGWYRQAPGKEREFVAAITWSGGSTYYADSVKGRFTISRDNAKNTVYLQMNSLKPEDTAVYYCAARAYKRKTYYYWGQGTQVTVSS”, the “polyreactivity (PSR sort gate)” value was “high polyreactivity”. For “QVQLVESGGGLVQAGGSLRLSCAASGSIFAGNAMGWYRQSPGKERELVAAITWRSGRTYYADSVKGRFTISRDNAKNTVYLEMNSLKPEDTAVYYCARGRYGYTAPFRRWYFRYDYWGQGTQVTVSS”, the “polyreactivity (PSR sort gate)” value was “high polyreactivity”. For “QVQLVESGGGLVQAGGSLRLSCAASGSIFAGYAMGWYRQAPGKDRELVAAINWTGDSTYYADSVKGRFTNSRDNAKNTVYLQMNSLKQEDTAVYYCAAIRRQKGLWDYYYWGQGTQVTVSS”, the “polyreactivity (PSR sort gate)” value was “low polyreactivity”. For “QVQLVESGGGLVQAGGSLRLSCAASGSIFAGYAMGWYRQAPGKERELVAAISKSAGSTYYADSVKGRFTISRDNAKNTVYLQMNSLKAEDTAVYYCAARTFNTYPSYYYWGQGTQVTVSS”, the “polyreactivity (PSR sort gate)” value was “high polyreactivity”. In the case of “QVQLVESGGGLVQAGGSLRLSCAASGSIFAGYAMGWYRQAPGKERELVAAISRRGGRTYYADSVKGRFTISRDNAKNTVYLQMNSLKPEDTAVYYCARRVDYISSKYGYWGQGTQVTVSS”, the “polyreactivity (PSR sort gate)” value is reported as “high polyreactivity”. With “QVQLVESGGGLVQAGGSLRLSCAASGSIFAGYAMGWYRQAPGKERELVATITSGGSTNYADSVKGRFTISRDNAKNTVYLQMNSLKPEDTAVYYCAADVEDSIPSSYTGGEYDYWGQGTQGTVSS” the “polyreactivity (PSR sort gate)” value was “low polyreactivity”. For “QVQLVESGGGLVQAGGSLRLSCAASGSIFAHNAMGWYRKAPGKERELVAAISSGGSTNYADSVKGRFTISRDNAKNTVYLQMISLKPEDTAVYYCAAVQYAPKWWGEYDYWGQGTQVTVSS”, the “polyreactivity (PSR sort gate)” value was “low polyreactivity”. With “QVQLVESGGGLVQAGGSLRLSCAASGSIFAHYTMGWYRQAPGKERELVAVISRSGARTYYADSVKGRFTISRDNAKNTVYLQMNSLKPEDTAVYYCAATWGSVQKGTYYYWGQGTQVTVSS” the “polyreactivity (PSR sort gate)” value was “low polyreactivity”. With “QVQLVESGGGLVQAGGSLRLSCAASGSIFAINAMGLYRQAPGKERELVARISWSGGRTYYADSVKGRFTISRDNAKNSVYLQMNSLKPEVTAVYYCAARYYWGQVTQVTVSS” the “polyreactivity (PSR sort gate)” value was “high polyreactivity”. With “QVQLVESGGGLVQAGGSLRLSCAASGSIFAINVMGWYRQAPGKEREFVAAISVRSGSTYYADSVKGRFTISRDNAKNTVYLQMNSLKPEDTAVYYCARDSYYIGRWLYYWGQGTQVTVSS” the “polyreactivity (PSR sort gate)” value was “high polyreactivity”. For “QVQLVESGGGLVQAGGSLRLSCAASGSIFAIYVMGWYRQAPGKERELVAAITWSGGSTYYADSVKGRFTISRDNAKNTVDLQMNSLKPEDTAVYYCAARVLRVRTVTTTWGQGTQVTLSS”, the “polyreactivity (PSR sort gate)” value was “high polyreactivity”. With “QVQLVESGGGLVQAGGSLRLSCAASGSIFAKNAMGWYRPAPGTERELVAGIDFSGGSTYYADSVKGRFTISGDNAKNTVYLQMNSLKAEDTAVYYCAADWAYKYELDYWGQGNQVTVSS” the “polyreactivity (PSR sort gate)” value was “low polyreactivity”. With “QVQLVESGGGLVQAGGSLRLSCAASGSIFAKNAMGWYRQAPGKERELVAAIDLNGGSTYYADSVKGRFTISRDNAKNTVYLQMNSLKPEDTAVYYCADYYGHSSVIRSSPEYDSWGQGTQVTVSS” the “polyreactivity (PSR sort gate)” value was “low polyreactivity”. For “QVQLVESGGGLVQAGGSLRLSCAASGSIFAKYYARGWYRQAPVKERELVAAITSGGITNYADSVKGRFTISRDNAKNSVYLQMNSLKPEDTAVYYCAARKWLSAFDYWGQGTQVTVSS”, the “polyreactivity (PSR sort gate)” value was “low polyreactivity”. For “QVQLVESGGGLVQAGGSLRLSCAASGSIFALYTMGWYRQAPWKERELVAGIRTGRSTNYADSVKGRFTISRDNAKNTVYLQMNSLKPEDTAVYYDYWGQGTQVTVSS”, the “polyreactivity (PSR sort gate)” value was “low polyreactivity”. With “QVQLVESGGGLVQAGGSLRLSCAASGSIFANAMGWYRQAHGKERELVAAISFSGGRTFYADSVKGRFTISRDNAKNTVYLQMNSLKPEDTAVYYCAKGKISSRSGIYNYWGQGTQVTVSS” the “polyreactivity (PSR sort gate)” value was “high polyreactivity”. With “QVQLVESGGGLVQAGGSLRLSCAASGSIFANNAMGWYRQAPGKERELVAAISSSGGSTYYADSVKGRFTISRDNAKNTVYLQMNSLKPEDTAVYYCAARFYYGRRYSTSYDYWGQGTQVTVSS” the “polyreactivity (PSR sort gate)” value was “high polyreactivity”. For “QVQLVESGGGLVQAGGSLRLSCAASGSIFANYAMGWYRQAPGKERELVAAISKRGGSTNYADSVKGRFTISRDNAKNTVYLQMISLKPEDTAVYYCNVKPGSRRVLAAAYGYWGQGTKVTVSS”, the “polyreactivity (PSR sort gate)” value was “low polyreactivity”. With “QVQLVESGGGLVQAGGSLRLSCAASGSIFAPYAMGLYRQAPGKERELVAAIRSSGGSTHYADSVKGRFTISRDNAKNTVYLQMNSLKPEDTAVYYCARSYGWYRWAGYDYWGQGTQVTVSS” the “polyreactivity (PSR sort gate)” value was “high polyreactivity”. In the case of “QVQLVESGGGLVQAGGSLRLSCAASGSIFAPYAMGWYRQAPGKERELVAAIRWSGGRTYYADSVKGRFTISRDNAKNTVYLQMNSLKPEDTAVYYCNAVIHRLGKTYGTNRVDYWGQGTQVTVSS”, the “polyreactivity (PSR sort gate)” value is reported as “high polyreactivity”. In the case of “QVQLVESGGGLVQAGGSLRLSCAASGSIFAPYAMGWYRQAPGKERELVAAISRSGGSTYYADSVKGRFTISRDNAKNTVYLQMNSLKPEDTAVYYCAVRNGLRQYRLDYWGQGTQVTVSS”, the “polyreactivity (PSR sort gate)” value is reported as “high polyreactivity”. With “QVQLVESGGGLVQAGGSLRLSCAASGSIFAPYAMGWYRQAPGKERELVATIRTTGDSTYYADSVKGRFTISRDNAKNTVYLQMNSLKPEDTAVYYCAAQQGVISRGNYWGQGTQVTVSS” the “polyreactivity (PSR sort gate)” value was “low polyreactivity”. For “QVQLVESGGGLVQAGGSLRLSCAASGSIFARYAMGWYRQAPGKERELVAAISRNGGSTYYADSVKGRFTISRDNAKNTVYLQMNSLKPEDTAVYYCAATQVGHYRIYDYWGQGTQVTVSS”, the “polyreactivity (PSR sort gate)” value was “low polyreactivity”. For “QVQLVESGGGLVQAGGSLRLSCAASGSIFARYAMGWYRQAPGKERELVAAISSNSASTYYADSVKGRFTISRDNAKNTVYLQMNSLKPEDTAVYYCATAYRSYWLNDYWGQGTQVTVSS”, the “polyreactivity (PSR sort gate)” value was “low polyreactivity”. In the case of “QVQLVESGGGLVQAGGSLRLSCAASGSIFASNAMGWYRQAPGKEREFVAAIRYSGGITYYADSVKGRFTISRDNAKNTVYLQMNSLKPEDTAVYSCAAYGWGIRWYSRFDYWGQGTPVTVSS”, the “polyreactivity (PSR sort gate)” value is reported as “high polyreactivity”.
